Measured values published in CN107759691A (HANGZHOU SHANGJIAN BIOTECHNOLOGY CO LTD, dated 2018).

Columns and labels:
[1] = target: T1, 人AXL蛋白胞外段-人IgG1Fc段融合蛋白 (AXL-Fc) (human, UniProt P30530 26-451); assay: ELISA, AXL-Fc coated at 1μg/ml, antibody titrated, OD450
T1 construct: extracellular domain; Expressed in CHO-K1 cells; also called 靶抗原AXL-Fc; not shown: human IgG1 Fc fragment
T1 sequence (looked up): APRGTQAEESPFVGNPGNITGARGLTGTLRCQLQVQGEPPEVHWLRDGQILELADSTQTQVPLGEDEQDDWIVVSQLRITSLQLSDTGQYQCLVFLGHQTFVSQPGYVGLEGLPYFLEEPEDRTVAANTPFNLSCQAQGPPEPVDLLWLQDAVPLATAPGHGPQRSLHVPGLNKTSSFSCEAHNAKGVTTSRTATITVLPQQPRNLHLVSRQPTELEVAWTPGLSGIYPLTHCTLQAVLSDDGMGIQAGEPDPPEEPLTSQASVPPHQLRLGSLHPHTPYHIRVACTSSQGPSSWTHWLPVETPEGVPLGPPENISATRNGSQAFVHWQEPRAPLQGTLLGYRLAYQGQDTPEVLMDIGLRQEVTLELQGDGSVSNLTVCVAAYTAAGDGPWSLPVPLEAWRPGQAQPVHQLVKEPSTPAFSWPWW

BSA(BOVOGEN) = target: T2, BSA(BOVOGEN) (UniProt P02769 25-607); assay: ELISA, protein coated at 1μg/ml, C3D3 detected with HRP goat anti-human IgG
T2 construct: Control coating
T2 sequence (P02769 25-607 limits assumed): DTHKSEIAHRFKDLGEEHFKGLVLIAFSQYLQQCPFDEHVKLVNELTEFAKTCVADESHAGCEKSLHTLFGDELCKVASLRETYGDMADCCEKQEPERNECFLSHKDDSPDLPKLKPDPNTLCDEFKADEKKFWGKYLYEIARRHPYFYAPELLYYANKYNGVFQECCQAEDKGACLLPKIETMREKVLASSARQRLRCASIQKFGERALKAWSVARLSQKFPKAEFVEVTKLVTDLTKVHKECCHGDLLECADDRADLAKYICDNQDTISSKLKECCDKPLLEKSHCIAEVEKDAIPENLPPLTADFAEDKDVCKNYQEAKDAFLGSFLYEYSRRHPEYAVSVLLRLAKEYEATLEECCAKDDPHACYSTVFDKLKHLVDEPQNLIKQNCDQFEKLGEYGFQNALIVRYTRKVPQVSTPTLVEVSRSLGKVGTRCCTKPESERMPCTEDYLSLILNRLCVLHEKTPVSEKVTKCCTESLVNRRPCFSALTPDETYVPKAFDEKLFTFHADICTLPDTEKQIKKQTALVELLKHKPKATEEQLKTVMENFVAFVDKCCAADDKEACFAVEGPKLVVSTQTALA

A549细胞表面AXL = target: T3, A549细胞表面AXL (UniProt P30530 26-894, limits assumed); assay: flow cytometry on A549 cells, C3D3 diluted to 20μg/ml and mixed with an equal volume of cells, PE mouse anti-human IgG
T3 construct: whole, on cells; Endogenous AXL on A549 cells, flow cytometry; also called AXL on A549 cells
T3 sequence (looked up): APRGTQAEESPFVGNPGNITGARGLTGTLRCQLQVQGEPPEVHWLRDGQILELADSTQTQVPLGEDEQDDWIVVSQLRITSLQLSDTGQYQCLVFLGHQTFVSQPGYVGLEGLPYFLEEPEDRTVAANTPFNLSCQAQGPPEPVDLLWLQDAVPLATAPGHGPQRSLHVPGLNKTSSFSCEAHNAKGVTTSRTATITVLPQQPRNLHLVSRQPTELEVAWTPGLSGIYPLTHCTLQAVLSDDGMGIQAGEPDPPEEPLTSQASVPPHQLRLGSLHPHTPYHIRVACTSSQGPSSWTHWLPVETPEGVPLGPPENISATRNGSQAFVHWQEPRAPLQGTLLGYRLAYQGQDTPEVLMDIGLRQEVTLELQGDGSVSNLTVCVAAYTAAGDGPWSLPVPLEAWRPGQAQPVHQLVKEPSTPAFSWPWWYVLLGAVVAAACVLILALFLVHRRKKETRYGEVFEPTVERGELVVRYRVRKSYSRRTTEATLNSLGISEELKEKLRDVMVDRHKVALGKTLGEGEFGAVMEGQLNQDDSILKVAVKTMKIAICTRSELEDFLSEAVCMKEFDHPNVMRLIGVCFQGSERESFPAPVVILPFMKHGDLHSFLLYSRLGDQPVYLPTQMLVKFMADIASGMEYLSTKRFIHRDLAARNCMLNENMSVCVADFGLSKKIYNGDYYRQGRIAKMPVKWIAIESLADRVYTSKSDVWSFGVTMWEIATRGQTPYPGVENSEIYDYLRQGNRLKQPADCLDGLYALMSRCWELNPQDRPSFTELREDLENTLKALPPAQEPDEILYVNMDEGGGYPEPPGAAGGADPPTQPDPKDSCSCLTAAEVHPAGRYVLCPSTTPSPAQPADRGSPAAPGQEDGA

B1: 3D3抗体 (antibody, V domains shown)
VH: EVKLLESGGGLVQPEGSLKLSCVASGFDFRRYWMSWVRQAPGKGLEWIGEINPAGSTINQTPSLKDKFIISRDNAKNTLYLQMSKVRSEDTALYYCVRLSVVFYYYGMDYWGQGTSVTVSS
VL: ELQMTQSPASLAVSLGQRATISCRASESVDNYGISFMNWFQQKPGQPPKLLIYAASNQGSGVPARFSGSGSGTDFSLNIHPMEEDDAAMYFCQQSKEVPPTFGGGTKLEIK
notes: also called 3D3 antibody
**Q.** Does B1 bind [1]?
**A.** Result: binds

B2: C3D3(Chimeric 3D3)抗体 (antibody, human IgG1, kappa, V domains shown)
VH: EVKLLESGGGLVQPEGSLKLSCVASGFDFRRYWMSWVRQAPGKGLEWIGEINPAGSTINQTPSLKDKFIISRDNAKNTLYLQMSKVRSEDTALYYCVRLSVVFYYYGMDYWGQGTSVTVSS
VL: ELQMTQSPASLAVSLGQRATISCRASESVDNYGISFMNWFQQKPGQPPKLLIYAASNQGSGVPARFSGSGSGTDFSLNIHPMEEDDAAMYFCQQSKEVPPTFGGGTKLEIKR
notes: Copies of 2 follow from the whole IgG format, not from a printed number; also called C3D3 antibody
**Q.** Does B2 bind [1]?
**A.** Result: binds

**Q.** Does B2 bind (BSA(BOVOGEN))?
**A.** Result: no binding

**Q.** Does B2 bind (A549细胞表面AXL)?
**A.** Result: binds
